This is an account of results in the supplement of paper PMC9170038.

The test system of the data set is MS2 coat protein. Kind of data set: apparent KD of MS2 coat protein; designed switch direction (-1 OFF switch, 1 ON switch): -1; higher = weaker reporter binding. A digest of the protocol: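 Designed RNA switches were transcribed on Illumina chips by stalled E. coli RNA polymerase and titrated with SNAP-549-labelled MS2 coat protein from 0.7 or 1.5 nM, doubling to 3 µM. Step length ran from 0.8–1.5 h at the lowest concentration to 10–20 min at the highest. The apparent KD is the median over clusters for each design, from curve-fitted normalised cluster fluorescence.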

[1] abbreviates: Eterna round: R95, input ligand: FMN 200 uM.
The mark [2] stands for this setting: Eterna round: R95, input ligand: microRNA oligo, concentration not stated.
The mark [3] stands for this setting: Eterna round: R95, input ligand: none.

On to “UGCCGUUGAGGAUAUACGUAGAAAUAGAUUCAUGUAAAACUACAUGAGGAUCACCCAUGUAGAAGGCAAUGGCU [Mat - Exclusion 2 - JL Mod - D47] (Eterna round: R97, puzzle: Exclusion 2)”, for which the “apparent KD of MS2 coat protein” value (input ligand: FMN 200 uM) came to 221 nM and the “apparent KD of MS2 coat protein” value (input ligand: none) worked out at 24.4 nM.

In the case of “UGCCUAAGAGGAUAUACAUAGAAAUAGAUUCAUGUAAAACUACAUGAGGAUCACCCAUGUAGAAGGCUUGGGCU [Mat - Exclusion 2 - JL Mod - D54] (Eterna round: R97, puzzle: Exclusion 2)”, the “apparent KD of MS2 coat protein” value by setting is: (input ligand: FMN 200 uM) 155 nM; (input ligand: none) 27.6 nM.

Take “UGCCUACAUGAGGAUCACCCAUGUGAGGAUAUCCUGCGAGGAUCAAAAGAUCCUCGUGGGAGAAGGCGCCUGGA [Omei Ex1 B5] (Eterna round: R97, puzzle: Exclusion 1)”: the “apparent KD of MS2 coat protein” value was 19.9 nM (input ligand: FMN 200 uM) and 16.2 nM (input ligand: none).

For “UGCCUACGUGUGAGGAUAUCAAGGUUUCCACACUAUGAGAAGGUACAUGAGGAUCACCCAUGUUUAGAUGAGCC [Eternabot (L2) Solution 43] (Eterna round: R97, puzzle: Brourd's mod of Exclusion 4)”, the “apparent KD of MS2 coat protein” value reads like this: (input ligand: FMN 200 uM) 74.2 nM; (input ligand: none) 74.6 nM.

In the case of “UGCGAGUAAGGAUAUUCGCGACCGCCCACAAAGGCGGUCGAGAAGAAGGUACUUGAGGAUCACCCAAGUCCUAA [Anremaqu] (Eterna round: R97, puzzle: Exclusion 4)”, the “apparent KD of MS2 coat protein” value was 98.2 nM (input ligand: FMN 200 uM) and 22 nM (input ligand: none).

In the case of “UGCGUUUGAGGAUAUACGUAGAAAUAGAUUCAUGUAAAACUACAUGAGGAUCACCCAUGUAGAAGGCAAGCGCU [Mat - Exclusion 2 - JL Mod - D39] (Eterna round: R97, puzzle: Exclusion 2)”, the “apparent KD of MS2 coat protein” value by setting is: (input ligand: FMN 200 uM) 239 nM; (input ligand: none) 26.4 nM.

Turning to “UGCUGACGAGGAUAUACAUGAGGAUCACCCAUGUUGGUCAAGCGACGAUAGUCGCAAUGUAGAAGGCGUCAGCA [E3/8-A2] (Eterna round: R97, puzzle: Exclusion 3)”, the “apparent KD of MS2 coat protein” value reads like this: (input ligand: FMN 200 uM) 239 nM; (input ligand: none) 405 nM.

Turning to “UGGUAACAUGAGGAUCACCCAUGUCAGGAUAUCAGUAAGAAUAGAUUAGAUUAGAAGAUGAGAAGGGACUAUAU [Excluse me! 5 - Jieux - Exclusion 1] (puzzle: Exclusion 1)”, the “apparent KD of MS2 coat protein” value under setting [1] was found to be 27.6 nM, the “apparent KD of MS2 coat protein” value under setting [2] is 32 nM and the “apparent KD of MS2 coat protein” value under setting [3] worked out at 36.7 nM.

In the case of “UGGUCACAUGAGGAUCACCCAUGUCAGGAUAUCUACAUUGAAGCCUCGGCUUCAAUGUAGAGAAGGGACAUAAU [E1/6-B2] (Eterna round: R97, puzzle: Exclusion 1)”, the “apparent KD of MS2 coat protein” value reads like this: (input ligand: FMN 200 uM) 121 nM; (input ligand: none) 265 nM.

Regarding “UGGUCACAUGAGGAUCACCCAUGUCAGGAUAUCUACAUUGAAGCUGCGGCUUCAAUGUAGAGAAGGGACAUAAU [E1/7-B3] (Eterna round: R97, puzzle: Exclusion 1)”, the “apparent KD of MS2 coat protein” value amounted to 314 nM (input ligand: FMN 200 uM) and 272 nM (input ligand: none).

On to “UGGUCACAUGAGGAUCACCCAUGUCAGGAUAUCUACAUUGAAGCUUCGGCUUCAAUGUAGAGAAGGGAUAUAAU [E1/9-B1] (Eterna round: R97, puzzle: Exclusion 1)”, for which the “apparent KD of MS2 coat protein” value (input ligand: FMN 200 uM) was 167 nM and the “apparent KD of MS2 coat protein” value (input ligand: none) is 71.4 nM.

For the sequence “UGUAACCGAGGAUAUACAUGAGGAUCACCCAUGUAAUGUAGUAUAGUGUAUGUAAGAUGUAGAAGGUGGGAUGU (Eterna round: R97, puzzle: Exclusion 3)”, the “apparent KD of MS2 coat protein” value (input ligand: FMN 200 uM) is 40.2 nM and the “apparent KD of MS2 coat protein” value (input ligand: none) amounted to 45.7 nM.

For “UGUAACCUGGUAAGGAUAUAGUUGCAAGGAGUCAACUAGAAGGUACAUGAGGAUCACCCAUGUCUACGGAUAUC [Eternabot (L2) Solution 91] (Eterna round: R97, puzzle: Brourd's mod of Exclusion 4)”, the “apparent KD of MS2 coat protein” value is 20.6 nM (input ligand: FMN 200 uM) and 17.3 nM (input ligand: none).

With “UGUACGAUGCGUGCUGACAUGCGUCGUGCAGCAGGUGAUACAUGAGGAUCACCCAUGUCCUCAUUUGCUCGUCAUGU [Mat - Sensor v3 - Turn-off var 2 - D25] (puzzle: Sensor v3, turn-off variant 2)”, the “apparent KD of MS2 coat protein” value stood at 73.4 nM under setting [1], 384 nM under setting [2] and 91.3 nM under setting [3].

On to “UGUACGAUGCGUGCUGACAUGCGUCGUGCAGCAGGUGAUACAUGAGGAUCACCCAUGUCCUCAUUUGCUCGUCUAGU [Mat - Sensor v3 - Turn-off var 2 - D24] (puzzle: Sensor v3, turn-off variant 2)”, for which the “apparent KD of MS2 coat protein” value runs as follows: under setting [1], 72.5 nM; under setting [2], 467 nM; under setting [3], 78.4 nM.

With “UGUACGAUGCGUGCUGACAUGCGUCGUGCAGCAGGUGAUACAUGAGGAUCACCCAUGUCCUCAUUUGCUCGUCUUGU [SL-sv3-2.11 JL mod] (puzzle: Sensor v3, turn-off variant 2)”, the “apparent KD of MS2 coat protein” value reads like this: under setting [1], 82.5 nM; under setting [2], 267 nM; under setting [3], 85.6 nM.

For “UGUACGAUGCGUGCUGACAUGCGUCGUGCAGCAGGUGGAACAUGAGGAUCACCCAUGUCCUCAUUUGCUCGUCUUGU [SL-sv3-2.10 JL mod] (puzzle: Sensor v3, turn-off variant 2)”, the “apparent KD of MS2 coat protein” value under setting [1] was 54.7 nM, the “apparent KD of MS2 coat protein” value under setting [2] turned out to be 140 nM and the “apparent KD of MS2 coat protein” value under setting [3] was 52.3 nM.

Regarding “UGUACUAACACGAGAGUGUUAGUACUAUAAGCUUGUGUUACAUGAGGAUCACCCAUGUCCUCAUAAGCUCGUCUUGA [Mat - Sensor v3 - Turn-off var 2 - D94] (puzzle: Sensor v3, turn-off variant 2)”, the “apparent KD of MS2 coat protein” value under setting [1] came out at 40.4 nM, the “apparent KD of MS2 coat protein” value under setting [2] came out at 285 nM and the “apparent KD of MS2 coat protein” value under setting [3] came to 34 nM.

For the sequence “UGUACUAUGCGUGCUGACAUGCGUAGUGCAGCAGGUGUUACAUGAGGAUCACCCAUGUCCUCAUUUGCUCGUCUUAU [SL-sv3-2.07 JL mod] (puzzle: Sensor v3, turn-off variant 2)”, the “apparent KD of MS2 coat protein” value reads like this: under setting [1], 189 nM; under setting [2], 200 nM; under setting [3], 215 nM.

“UGUAGAGUGGUAGGAUAUCCGUCUGUUUCAGUCGGAGAAGGGCCACAGUCACUGGGUCCUAAUAUCAUGGAGACCUGAUCUACU [pwkr exNG1 F6.14] (Eterna round: R96, puzzle: Exclusion NG 1)”: the “apparent KD of MS2 coat protein” value is, setting by setting: (input ligand: FMN 200 uM) 599 nM; (input ligand: microRNA oligo, concentration not stated) 288 nM; (input ligand: none) 383 nM.

Turning to “UGUAGUUCAGGAUAUGAUGUUUAAUACAUGAGGAUCACCCAUGUAGAUCCUGAAUUUACAUCAGAAGGGAAUAUUU [JL-ex5-4.57 Brourd mod] (Eterna round: R97, puzzle: Exclusion 5)”, the “apparent KD of MS2 coat protein” value is 17.3 nM (input ligand: FMN 200 uM) and 14.9 nM (input ligand: none).

For the sequence “UGUAUACAUGAGGAUCACCCAUGUAAGGAUAUACAUCAGAUCGACACCGGACUGGCCCGUAGAAGGUGCGUGGA [Eternabot (L2) Solution 67] (Eterna round: R97, puzzle: Exclusion 1)”, the “apparent KD of MS2 coat protein” value by setting is: (input ligand: FMN 200 uM) 24.9 nM; (input ligand: none) 24 nM.

For “UGUAUCCGAGGAUAUCGCUUGAGGGACAUGAGGAUCACCCAUGUGAAGAAAAGCGUCCCGCGAGAAGGCGGACCCA [EX5 B.24] (Eterna round: R97, puzzle: Exclusion 5)”, the “apparent KD of MS2 coat protein” value by setting is: (input ligand: FMN 200 uM) 189 nM; (input ligand: none) 66.4 nM.

For the sequence “UGUCAGUCAGGAUAUGCAUACGUAGACAUGAGGAUCACCCAUGUGACGUGGGCCUGGUGUGUAGAAGGGACGAACA [EX5 #80] (Eterna round: R97, puzzle: Exclusion 5)”, the “apparent KD of MS2 coat protein” value runs as follows: (input ligand: FMN 200 uM) 48.5 nM; (input ligand: none) 19.5 nM.

Consider “UGUGCAACAGGAUAUAUGUGGCGUCCGUGAGGACGAAGGUUACAUGAGGAUCACCCAUGUAGAAGGGUUGUACU [Mat - Exclusion 2 - JL Mod - D24] (Eterna round: R97, puzzle: Exclusion 2)”, for which the “apparent KD of MS2 coat protein” value (input ligand: FMN 200 uM) was found to be 218 nM and the “apparent KD of MS2 coat protein” value (input ligand: none) came to 68.5 nM.

Turning to “UGUGCGUAUGUGAGGAUAUGCUGGUCCUUGGAUCGGCAGAAGGCACAUGAGGAUCACCCAUGUGGUGUCGUACA [salish99_Bmod_ex4_086] (puzzle: Brourd's mod of Exclusion 4)”, the “apparent KD of MS2 coat protein” value under setting [2] was 204 nM.

With “UGUGCGUAUGUGAGGAUAUGCUGGUCCUUGGAUCGGCAGAAGGCACAUGAGGAUCACCCAUGUGGUGUCGUUCU [salish99_Bmod_ex4_096] (puzzle: Brourd's mod of Exclusion 4)”, the “apparent KD of MS2 coat protein” value under setting [2] amounted to 188 nM.

As to “UGUGCGUCAGGAUAUUCUAUUUAUUACAUGAGGAUCACCCAUGUGAAUGUACAAGGGUGUGAAGAAGGGACUUGUG [LRO-Excl5-03-mod A17d by Omei] (Eterna round: R97, puzzle: Exclusion 5)”, the “apparent KD of MS2 coat protein” value is, setting by setting: (input ligand: FMN 200 uM) 808 nM; (input ligand: none) 1090 nM.

In the case of “UGUGUGAGACAGGAUAUGCCAGAUAUAUUACUGGUAGAAGGGUCUACAUGAGGAUCACCCAUGUGGCCGGCCGG [Ex6 #85] (Eterna round: R97, puzzle: Exclusion 6)”, the “apparent KD of MS2 coat protein” value runs as follows: (input ligand: FMN 200 uM) 65.3 nM; (input ligand: none) 28.5 nM.

Turning to “UGUGUGUGACAGGAUAUGCAGGUAAUGAGACGGGUAGAAGGGUCUACAUGAGGAUCACCCAUGUGGCCGGUUGG [Ex6 #62] (Eterna round: R97, puzzle: Exclusion 6)”, the “apparent KD of MS2 coat protein” value is, setting by setting: (input ligand: FMN 200 uM) 17.7 nM; (input ligand: none) 16.4 nM.

With “UGUUGGCGAGGAUAUACAUGAGGAUCACCCAUGUGAGAGAAAAAAGUGAGGAAGAAAAGUAGAAGGCGCUGACG [salish99_ex3_r3_043] (puzzle: Exclusion 3)”, the “apparent KD of MS2 coat protein” value under setting [1] worked out at 209 nM, the “apparent KD of MS2 coat protein” value under setting [2] stood at 40 nM and the “apparent KD of MS2 coat protein” value under setting [3] amounted to 45.4 nM.
